# Measurements published in US11541133B2, “Treatment of cancer cells overexpressing somatostatin receptors using ocreotide derivatives chelated to radioisotopes” (RADIOMEDIX INC., priority 2017, dated 2023).
# Experiments:
# [1] = Dosimetry and bio-distribution of ^203Pb-DOTAMTATE in patients with somatostatin expressing neuroendocrine tumors (SPECT-CT); assay type: in vivo, human; details: human, in vivo
# Protocol: Total of 6 patients are enrolled in the first-in-human open-label, single-dose, dosimetry and bio-distribution of ^203Pb-DOTAMTATE.
# All patients (1 female and 5 male) receive an average dose of 4.94 (4.66-5.26) mCi of ^203Pb-DOTAM-TATE and undergo 1 hour, 4 hour, 24 hour and 48 hour post injection SPECT-CT scans. Ethnicity of all 6 patients is Caucasian.
# Pharmacokinetic data from ^203Pb-DOTAMTATE imaging are used to calculate the absorbed dose from ^203Pb-DOTAMTATE imaging. The data is then extrapolated to calculate the expected tissue absorbed doses following the administration of ^212Pb-DOTAMTATE for future Targeted Alpha particle Therapy (TAT).
# [2] = Side by side biodistribution of ^203Pb- and ^212Pb-DOTAMTATE in CD-1 mice (FIG. 32); assay type: in vivo; details: female CD-1 mice, 10 μCi iv, 4 hr and 24 hours
# Protocol: Female CD-1 mice (˜20 g) are injected with a single dose of ^203Pb-DOTAMTATE or ^212Pb-DOTAMTATE. Specifically, 10 μCi of ^203Pb-DOTAMTATE or ^212Pb-DOTAMTATE is diluted in saline and 100 μl is administered to the mice via intravenous injection. The animals are sacrificed at predetermined time points of 4 hr and 24 hours post drug injection. Tissues are collected from each animal and evaluated for amount of radioactive material in each organ by auto gamma counter. Specifically, organs are harvested, weighed and transferred to 12×55 mm polypropylene tubes. The tubes are placed in a calibrated Wizard2 γ-counter (PerkinElmer, Shelton, Conn.) and counted for three minutes (204-274 keV). A standard consisting of one-twentieth of the injection volume is counted with each time point. The background is automatically subtracted from the counts. The standard is also used for decay correction. % ID/g is calculated for each organ collected, wherein “% ID” means percent injection dosage.
# [3] = Biodistribution in non-tumor bearing CD-1 mice at 4 h post-injection (FIGS. 12-13); details: female, CD-1, mouse, in vivo, total radioactivity
# Protocol: FIG. 12 is a bar graph 1200 showing the biodistribution (% ID/g)(y-axis) for various organs (x-axis). The biodistribution of ^203Pb-TCMCTATE and ^203Pb-DOTAMTATE is shown for non-tumor bearing mice done at 4 h post-injection. The biodistribution studies of ^203Pb-TCMCTATE and ^203Pb-DOTAMTATE are completed in non-tumor bearing mice (CD-1 mice, Female, 20 g wt. 4-5 weeks) at 4 h post-injection of the cancer targeting compositions.
# In comparison, FIG. 13 is a graph 1300 (similar to the graph of FIG. 12), except that the biodistribution study is of ^203Pb-acetate (a lead radioisotope without a chelator or targeting moiety) in non-tumor bearing mice done at 4 h post-injection. A higher accumulation of isotope is observed in blood, kidney, liver and lung compared to the chelated radioisotopes of FIG. 12. The biodistribution studies of the ^203Pb-acetate indicate retention of the isotope in bone marrow, blood and liver after 4 h post-injection.
# [4] = ^203Pb-DOTAMTATE biodistribution in athymic nude mice (FIG. 16); assay type: in vivo; details: female athymic nude mice, 10 μCi iv, 4, 24 and 48 hours
# Protocol: FIG. 16 is a bar graph 1600 showing the biodistribution results (% ID/g) of ^203Pb-DOTAMTATE in various organs (y-axis). The biodistribution data are acquired at 4 h, 24 h, and 48 h post-injection. […] There is also accumulation of the composition observed in kidneys and bladder due elimination of the composition through renal clearance. As may be seen from these figures, the composition is washed out from all measured organs over time in non-tumor bearing mice.
# Female athymic nude mice (˜20 g) are injected with a single dose of ^203Pb-DOTAMTATE. Specifically, 10 μCi of ^203Pb-DOTAMTATE is diluted in PBS and 100 μl is administered to the mice via intravenous injection. The animals are sacrificed at predetermined time points of 4 hr, 24 hours and 48 hours post drug injection. Tissues are collected from each animal and evaluated for amount of radioactive material in each organ by auto gamma counter. Specifically, organs are harvested, weighed and transferred to polypropylene tubes. The tubes are placed in a calibrated Wizard2 γ-counter (PerkinElmer, Shelton, Conn.) and counted for three minutes (204-274 keV). A standard consisting of one-twentieth of the injection volume is counted with each time point. The background is automatically subtracted from the counts. The standard is also used for decay correction. % ID/g is calculated for each organ collected.
# [5] = Radiochemical stability by radio-HPLC after labeling, incubation in PBS buffer; details: room temperature
# in vivo = assay: in vivo; set-up: species or system mice
# Protocol: ^212Pb-DOTATOC is prepared based on activity needed at time of injection. 4.1 ng of peptide per 10 μCi of ^212Pb into a tube is added. The mixture is incubated for 10 minutes at 50° C. with shaking. ITLC (Instant thin layer chromatography) is used to verify that chelation is >95%. 100 μl of ^212Pb-DOTATOC is intravenously injected into the tail of each mouse. An auto gamma counter is used to determine the counts of each organ and control tube.
# [6] = female, CD-1, mouse, iv, 10 uCi, total radioactivity
compound,measurement,setting,value
"C[C@@H](O)[C@H](NC(=O)[C@@H]1CSSC[C@H](NC(=O)[C@@H](Cc2ccccc2)NC(=O)CN2CCN(CC(N)=O)CCN(CC(N)=O)CCN(CC(N)=O)CC2)C(=O)N[C@@H](Cc2ccc(O)cc2)C(=O)N[C@H](Cc2c[nH]c3ccccc23)C(=O)N[C@@H](CCCCN)C(=O)N[C@@H]([C@@H](C)O)C(=O)N1)C(=O)O [^203Pb-DOTAMTATE, ((4R,7S,10S,13R,16S,19R)-13-((1H-indol-3-yl)methyl)-10-(4-aminobutyl)-16-(4-hydroxybenzyl)-7-((R)-1-hydroxyethyl)-6,9,12,15,18-pentaoxo-19-((R)-3-phenyl-2-(2-(4,7,10-tris(2-amino-2-oxoethyl)-1,4,7,10-tetraazacyclododecan-1-yl)acetamido)propanamido)-1,2-dithia-5,8,11,14,17-pentaazacycloicosane-4-carbonyl)-L-threonine chelated to M, metal not drawn]","absorbed dose, kidneys, average, for ^212Pb",[1],19 mGy/MBq
same,"absorbed dose, liver, average, for ^212Pb",[1],17 mGy/MBq
same,dose to bone marrow,[1],1.6 Gy
same,dose to heart wall,[1],3.7 Gy
same,dose to lungs,[1],2.5 Gy
same,dose to osteogenic cells,[1],0.5 Gy
same,dose to spleen,[1],31 Gy
same,organ uptake compared with ^212Pb-DOTAMTATE in all critical organs,[2],not significantly different
same,tissue uptake at 4 h,[3]; kidney retention,9.79 ± 2.9 %ID/g
same,tissue uptake at 4 h,[3]; retention in other organs (than kidneys),< 2 %ID/g
same,organ uptake,[4],high initial uptake of the drug in the pancreas and kidneys that continues to decrease over time
same,"radiochemical stability (radiochemical yield, no free ^203Pb peak in radio-HPLC)",[5]; up to at least 24 h post-labeling,≥ 98%
"C[C@@H](O)[C@H](NC(=O)[C@@H]1CSSC[C@H](NC(=O)[C@@H](Cc2ccccc2)NC(=S)Nc2ccc(C[C@H]3CN(CC(N)=O)CCN(CC(N)=O)CCN(CC(N)=O)CCN3CC(N)=O)cc2)C(=O)N[C@@H](Cc2ccc(O)cc2)C(=O)N[C@H](Cc2c[nH]c3ccccc23)C(=O)N[C@@H](CCCCN)C(=O)N[C@@H]([C@@H](C)O)C(=O)N1)C(=O)O [^203Pb-TCMCTATE, ((4R,7S,10S,13R,16S,19R)-13-((1H-indol-3-yl)methyl)-10-(4-aminobutyl)-16-(4-hydroxybenzyl)-7-((R)-1-hydroxyethyl)-6,9,12,15,18-pentaoxo-19-((R)-3-phenyl-2-(3-(4-(((S)-1,4,7,10-tetrakis(2-amino-2-oxoethyl)-1,4,7,10-tetraazacyclododecan-2-yl)methyl)phenyl)thioureido)propanamido)-1,2-dithia-5,8,11,14,17-pentaazacycloicosane-4-carbonyl)-L-threonine chelated to M, metal not drawn]",tissue uptake at 4 h,"[3]; non-tumor bearing CD-1 mice, 4 h post-injection, read-out: kidney retention",23.5 ± 1.54 %ID/g
same,tissue uptake at 4 h,"[3]; non-tumor bearing CD-1 mice, 4 h post-injection, read-out: retention in other organs (than kidneys)",< 2 %ID/g
same,radiochemical stability (radio-HPLC),[5]; up to 18 h post-labeling,≥ 96%
"C[C@@H](O)[C@@H]1NC(=O)[C@H](CCCCN)NC(=O)[C@@H](Cc2c[nH]c3ccccc23)NC(=O)[C@H](Cc2ccc(O)cc2)NC(=O)[C@@H](NC(=O)[C@@H](Cc2ccccc2)NC(=O)CN2CCN(CC(=O)O)CCN(CC(=O)O)CCN(CC(=O)O)CC2)CSSC[C@@H](C(=O)N[C@H](CO)[C@@H](C)O)NC1=O [^212Pb-DOTATOC, metal not drawn]",tissue uptake at 0.5 h,in vivo; [6],19 %ID/g
same,tissue uptake at 4 h,in vivo; [6],22 %ID/g
same,drug in all other organs,in vivo; mouse,nearly undetectable
